Assay results reported in EP4273162A1 (Numab Therapeutics AG, dated 2023).
Blank lines part the entries; values can stand above or below the binder they belong to.

Key:
[1] = molecular target: T1, human α-PD-L1 Fc (Sino Biological, 10084-H02H, LC11NO2402) (human, UniProt Q9NZQ7 19-239); experiment: SPR, PD-L1 Fc immobilised, scFv as analyte, 1:1 Langmuir fit
T1 construct: also called Human PD-L1

[2] = molecular target: pre-existing anti-drug antibodies (ADAs) in human sera; experiment: ELISA, scFv coated, 5% human serum unspiked/spiked, anti-human IgG-HRP
[3] = molecular target: T2, human α-Mesothelin (Acro Biosystems; MSN_H5223) (human, UniProt Q13421 296-580, limits assumed); experiment: SPR, MSLN immobilised, scFv as analyte, 1:1 Langmuir fit
T2 construct: also called Human MSLN; MSLN
T2 sequence (Q13421 other isoform, or with tags, fused parts or gaps limits assumed): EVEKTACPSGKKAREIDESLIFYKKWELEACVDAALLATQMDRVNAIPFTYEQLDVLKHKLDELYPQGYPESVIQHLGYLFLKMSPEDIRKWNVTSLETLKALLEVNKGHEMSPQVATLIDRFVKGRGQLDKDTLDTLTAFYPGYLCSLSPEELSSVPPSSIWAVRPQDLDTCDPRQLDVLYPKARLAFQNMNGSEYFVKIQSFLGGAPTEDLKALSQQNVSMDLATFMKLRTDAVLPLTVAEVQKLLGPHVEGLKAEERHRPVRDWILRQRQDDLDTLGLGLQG

T1 sequence (Q9NZQ7 19-239 limits assumed): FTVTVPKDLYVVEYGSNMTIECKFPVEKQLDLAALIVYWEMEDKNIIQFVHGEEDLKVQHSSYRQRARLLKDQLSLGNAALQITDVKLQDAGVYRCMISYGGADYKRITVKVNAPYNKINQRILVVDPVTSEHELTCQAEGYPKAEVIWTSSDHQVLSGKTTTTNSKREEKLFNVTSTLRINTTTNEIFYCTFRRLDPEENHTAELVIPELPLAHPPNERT

Kd [1]: 1.5 nM
No of positive serum samples above 30 % CCP (positive sera of 20) [2]: 6
No of screening positive serum samples above 30 % Inhibition (positive sera of 20) [2]: 18
B1: scFv 37-20-B03-sc09.1 PRO2230 (scFv)
scFv: DIQMTQSPASLSASVGDRVTITCQASQSIGTYLAWYQQKPGKPPKLLIYRAFILASGVPSRFSGSGSGTDFTLTISSLQPEDFATYYCQSNFYSDSTTIGPNAFGTGTKVTVLGGGGGSGGGGSGGGGSGGGGSEVQLVESGGGLVQPGGSLRLSCAASGFSFNSDYWIYWVRQAPGKGLEWIASIYGGSSGNTQYASWAQGRFTISRDNSKNTVYLQMNSLRAEDTAVYFCARGYVDYGGATDLWGQGTLVTVSS
notes: also called PRO2330; PRO2230 wt

No of positive serum samples above 30 % CCP (positive sera of 20) [2]: 10
No of screening positive serum samples above 30 % Inhibition (positive sera of 20) [2]: 16
Kd [3]: 1.8 nM
B2: scFv 54-21-H03-sc01 (PRO1922) (scFv)
scFv: DIQMTQSPSSLSASVGDRVTITCQASESIYSSLAWYQQKPGKAPKLLIYLASTLASGVPSRFSGSGSGTDFTLTISSLQPEDFATYYCQSTDYTTSTHRNSFGTGTKVTVLGGGGGSGGGGSGGGGSGGGGSEVQLVESGGGLVQPGGSLRLSCAASGFSFSTTYYMCWVRQAPGKGLEWIGCTNTASSVRTYYATWAKGRFTISRDNSKNTVYLQMNSLRAEDTAVYYCARDMGFADYALNLWGQGTLVTVSS
notes: also called PRO1992; PRO1922 wt
